From article PMC6264893

Legend:
[1] = target: prothymosin α (unlabeled, wildtype) (human) (UniProt P06454); experiment: NMR titration
[2] = target: ProTα labeled at positions 56 and 110 (FRET-labeled prothymosin α) (human) (UniProt P06454); experiment: FRET or BRET
[3] = target: ProTα labeled at positions 56 and 110 (FRET-labeled prothymosin α) (human) (UniProt P06454); experiment: stopped-flow FRET kinetics

Chain of linker histone H1.0 (P07305 whole entry): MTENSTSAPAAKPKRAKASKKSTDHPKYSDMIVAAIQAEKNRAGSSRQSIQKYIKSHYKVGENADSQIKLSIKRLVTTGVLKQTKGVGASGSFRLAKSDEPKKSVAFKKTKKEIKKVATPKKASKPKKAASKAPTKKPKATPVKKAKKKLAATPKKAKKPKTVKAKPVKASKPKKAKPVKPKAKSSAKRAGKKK

Row | stoichiometry N [1] | Kd [2] | koff [3] | Substance
1 | > 4 | 1900 nM | – | globular domain of H1 (domain or fragment)
2 | – | – | 0.0065 s⁻¹ | linker histone H1.0 (from UniProt P07305 1-194) (natural protein)
